Test results published in patent US20220332804A1 (CSL INNOVATION, published 2022).
Numbering of substitutions follows the chain as printed.

T1: Activated human C2 (huC2a) (human, UniProt P06681 244-752)
T1 construct: domain: C2a; also called human C2a
T1 sequence (looked up): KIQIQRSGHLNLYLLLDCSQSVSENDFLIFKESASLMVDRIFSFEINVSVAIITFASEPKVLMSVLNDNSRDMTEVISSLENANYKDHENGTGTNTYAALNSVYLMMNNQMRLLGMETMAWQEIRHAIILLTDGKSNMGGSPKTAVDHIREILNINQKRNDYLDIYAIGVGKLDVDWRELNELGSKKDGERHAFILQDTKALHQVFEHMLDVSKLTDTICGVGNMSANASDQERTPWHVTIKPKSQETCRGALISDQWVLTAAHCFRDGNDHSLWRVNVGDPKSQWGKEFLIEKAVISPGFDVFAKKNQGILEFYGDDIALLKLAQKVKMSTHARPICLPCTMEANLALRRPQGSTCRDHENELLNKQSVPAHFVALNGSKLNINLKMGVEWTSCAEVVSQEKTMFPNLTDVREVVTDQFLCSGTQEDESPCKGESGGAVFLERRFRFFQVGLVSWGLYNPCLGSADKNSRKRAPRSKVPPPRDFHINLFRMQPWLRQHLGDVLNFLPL

T2: human C2 A470S (human, UniProt P06681 21-752)
T2 sequence: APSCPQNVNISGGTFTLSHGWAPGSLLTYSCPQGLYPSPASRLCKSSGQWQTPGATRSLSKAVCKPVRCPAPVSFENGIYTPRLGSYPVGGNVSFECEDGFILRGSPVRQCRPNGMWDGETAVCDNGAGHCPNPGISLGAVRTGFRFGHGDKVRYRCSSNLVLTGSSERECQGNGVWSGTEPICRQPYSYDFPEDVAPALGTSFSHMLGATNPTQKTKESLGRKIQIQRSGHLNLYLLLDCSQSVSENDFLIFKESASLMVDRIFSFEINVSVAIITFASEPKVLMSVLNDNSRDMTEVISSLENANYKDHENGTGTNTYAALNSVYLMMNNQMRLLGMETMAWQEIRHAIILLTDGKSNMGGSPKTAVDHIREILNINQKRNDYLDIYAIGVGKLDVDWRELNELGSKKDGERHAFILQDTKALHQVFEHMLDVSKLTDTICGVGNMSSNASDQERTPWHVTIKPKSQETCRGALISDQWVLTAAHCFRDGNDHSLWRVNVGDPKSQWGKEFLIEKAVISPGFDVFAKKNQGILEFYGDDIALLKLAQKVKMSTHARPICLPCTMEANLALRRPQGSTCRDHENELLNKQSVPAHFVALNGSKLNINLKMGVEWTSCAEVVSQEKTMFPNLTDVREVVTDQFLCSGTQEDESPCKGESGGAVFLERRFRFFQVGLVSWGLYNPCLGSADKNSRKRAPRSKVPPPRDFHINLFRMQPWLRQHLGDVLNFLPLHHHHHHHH

T3: human C2 L620A (human, UniProt P06681 21-752)
T3 sequence: T2 sequence with S450A, L600A

T4: human C2 D431A (human, UniProt P06681 21-752)
T4 sequence: T2 sequence with D411A, S450A

B1: RF16-226 (antibody)
heavy: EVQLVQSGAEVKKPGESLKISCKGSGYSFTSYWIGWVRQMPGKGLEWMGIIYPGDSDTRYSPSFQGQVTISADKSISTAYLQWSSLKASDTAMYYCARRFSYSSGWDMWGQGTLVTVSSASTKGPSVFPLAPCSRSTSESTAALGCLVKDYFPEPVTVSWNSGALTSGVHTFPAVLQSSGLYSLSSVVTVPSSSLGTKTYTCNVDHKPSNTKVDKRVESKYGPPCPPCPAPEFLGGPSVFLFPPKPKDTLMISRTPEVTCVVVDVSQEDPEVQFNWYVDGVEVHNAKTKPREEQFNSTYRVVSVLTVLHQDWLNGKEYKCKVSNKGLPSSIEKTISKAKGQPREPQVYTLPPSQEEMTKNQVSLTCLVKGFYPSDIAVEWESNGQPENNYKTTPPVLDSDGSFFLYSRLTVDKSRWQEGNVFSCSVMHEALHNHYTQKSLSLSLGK
light: SYELTQPPSVSVSPGQTARITCSGDALTSKYVAWYQQKSGLAPLLVIYEDTRRPSGIPAKFSGSSSGSVATLTISGAHGDDEADYYCYSTDASGHQRVFGGGTKLTVLSQPKAAPSVTLFPPSSEELQANKATLVCLISDFYPGAVTVAWKADGSPVKAGVETTKPSKQSNNKYAASSYLSLTPEQWKSHRSYSCQVTHEGSTVEKTVAPTECS
B2: RF16-242 (antibody, human IgG4 S228P, lambda, V domains shown)
VH: EVQLLQSGAEVKKPGESLKISCKGSGYSFTSYWIGWVRQMPGKGLEWMGIIYPGDSDTRYSPSFQGQVTISADKSISTAYLQWSSLKASDTAMYYCARRGHYGDYFDYWGQGTLVTVSS
VL: SYELTQPPSVSVSPGQTARITCSGDALPKKYAYWYHQKSGQAPVLVIYEDRRRPSEIPERFSGSSSGTMATLTITGAQVEDEGVYFCYSRDRAGNQRVFGGGTQLTVLG
notes: pH-dependent anti-C2 antibody from a phage display library

Experiments:
[1] = target: T1, Activated human C2 (huC2a); assay: SPR, mAb captured, neutral and acidic pH, 0 to 2 mM CaCl2
Procedure: (§1) Surface plasmon resonance (SPR, Biacore) was used for all binding affinity analyses. In brief, goat anti-human IgG was directly immobilised onto the carboxymethyl dextran surface of CM5 sensorchips to approximately 12,000 RU using standard NHS/EDC chemistry at pH 5. The immobilised antibody surface was pre-conditioned with ten injections of polyclonal human IgG (Privigen 60 s) prepared at 1 μg/mL. Ligands (anti-C2 mAbs) were captured at the beginning of each cycle as described below. An adjacent spot or flow cell in which only Polyclonal IgG was capture was used as a reference surface. The goat anti-human IgG Fc antibody surface was regenerate in 100 mM H3PO4, injected for 45 seconds at the end of each cycle. Experiments were performed at 37° C. and the flow rate of each experiment was kept constant at 30 μL/min.
The effect of calcium on antibody binding was determined with the addition of calcium chloride to the SPR running buffer. Calcium concentrations ranged from zero (i.e. no added calcium, control) to near physiological levels (0.02, 0.2 and 2 mM CaCl₂.2H₂O, MW 147.02 Da). […]
Purified human C2 zymogen was tested in physiological conditions (pH 7.3) at concentrations ranging from 1.9 to 500 nM and in acidic conditions (pH 6) at concentrations ranging from 3.9 to 2000 nM. […] Analyte association and dissociation were monitored for 180 and 600 seconds, respectively. […]

[2] = target: T2, human C2 A470S; assay: SPR, antibody captured, C2 as analyte;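 note: biacore at 37 °C, anti-C2 mAbs held by immobilised goat anti-human IgG, C2 alanine or serine mutants injected, double-referenced sensorgrams fitted to a 1:1 kinetic or steady-state model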
Procedure: as §1
(§2) Sensogram data was double-referenced against a reference anti-IgG surface (i.e. minus anti-C2 mAb) and blank buffer injections obtained within each experiment. The binding data was fit to 1:1 (kinetic or steady-state) model using local Rmax and null refraction index (RI=0) when appropriate. Buffers and solutions were filtered (0.22 μm) prior to use.

[3] = target: T3, human C2 L620A; assay: SPR, antibody captured, C2 as analyte;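 note: biacore at 37 °C, anti-C2 mAbs held by immobilised goat anti-human IgG, C2 alanine or serine mutants injected, double-referenced sensorgrams fitted to a 1:1 kinetic or steady-state model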
Procedure: as §1, §2

[4] = target: T4, human C2 D431A; assay: SPR, antibody captured, C2 as analyte;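 note: biacore at 37 °C, anti-C2 mAbs held by immobilised goat anti-human IgG, C2 alanine or serine mutants injected, double-referenced sensorgrams fitted to a 1:1 kinetic or steady-state model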
Procedure: as §1, §2

Binder	binding result [1]	Kd [2]	Kd [3]	Kd [4]
B1	no binding	–	–	–
B2	–	5 nM	8 nM	22.9 nM
